# Results: article PMC7823470, “Arabidopsis Plant Natriuretic Peptide Is a Novel Interactor of Rubisco Activase” (Life, 2020)
# “Also recorded” adds a separate entry of the source. Bridge positions count the residues as written; N and C are the ends. Ends that are not written are not given here. Peptide text beside a SMILES is read from it. * marks the point of attachment. Biotin = O=C1N[C@H]2[C@H](CS[C@H]2CCCCC(=O)*)N1
# T1: purified recombinant N-terminally His-tagged rubisco activase (rRCA) (Arabidopsis thaliana, UniProt P10896 59-474)
# T1 construct: Rubisco activase (RCA), A. thaliana, At2g39730; also called recombinant RCA; source: E. coli BL21 (DE3) One Shot, purified (Ni-NTA beads, HisTrap HP column); not shown: His6, N-terminal, kept
# T1 sequence (looked up): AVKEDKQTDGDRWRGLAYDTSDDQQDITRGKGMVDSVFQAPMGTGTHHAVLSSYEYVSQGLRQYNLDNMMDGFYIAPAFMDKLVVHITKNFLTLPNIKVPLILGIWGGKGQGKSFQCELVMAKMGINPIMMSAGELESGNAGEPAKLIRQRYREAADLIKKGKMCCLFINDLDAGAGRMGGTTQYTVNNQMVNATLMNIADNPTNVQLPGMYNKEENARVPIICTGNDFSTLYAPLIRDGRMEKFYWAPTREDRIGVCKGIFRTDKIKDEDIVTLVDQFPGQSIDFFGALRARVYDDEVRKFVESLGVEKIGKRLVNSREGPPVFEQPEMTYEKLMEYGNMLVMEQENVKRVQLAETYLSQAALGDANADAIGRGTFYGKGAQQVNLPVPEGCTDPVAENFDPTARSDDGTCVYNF
# T2: recombinant RCA (rRCA) (Arabidopsis thaliana, UniProt P10896)
# T2 construct: made in house; host or cells: E. coli BL21 (DE3) One Shot
# T2 sequence (P10896 whole entry, looked up): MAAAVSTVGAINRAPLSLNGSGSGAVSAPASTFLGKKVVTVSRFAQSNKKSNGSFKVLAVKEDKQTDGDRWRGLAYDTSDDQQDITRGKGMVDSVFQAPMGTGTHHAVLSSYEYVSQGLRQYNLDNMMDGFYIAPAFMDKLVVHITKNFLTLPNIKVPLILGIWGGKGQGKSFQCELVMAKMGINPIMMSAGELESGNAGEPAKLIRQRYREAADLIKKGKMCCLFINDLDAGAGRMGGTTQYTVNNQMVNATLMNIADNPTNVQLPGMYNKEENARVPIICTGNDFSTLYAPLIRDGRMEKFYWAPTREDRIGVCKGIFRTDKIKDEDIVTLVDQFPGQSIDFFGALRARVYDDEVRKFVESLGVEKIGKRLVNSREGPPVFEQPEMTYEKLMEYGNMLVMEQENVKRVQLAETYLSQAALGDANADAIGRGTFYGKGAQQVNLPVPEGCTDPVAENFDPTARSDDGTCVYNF
# B1: pAtPNP-A, N-terminally biotinylated AtPNP-A(33–66) peptide containing the active region of AtPNP-A (peptide, UniProt Q9ZV52 33-66, looked up)
# peptide: Biotin-YDPPYTRSACYGTQRETLVVGVKNNLWQNGRACG
# modifications: disulfide 10-33 (inferred)
# notes: AtPNP-A (plant natriuretic peptide A), A. thaliana, At2g18660, residues 33-66 (active region); Peptides were bought with or without the N-terminal biotin tag; also called biologically active fragment of AtPNP-A; source: synthetic peptide, bought: GenScript (purity at least 95%, HPLC)
# B2: rAtPNP-A: purified N-terminally His-tagged AtPNP-A protein (protein)
# chain: AQGKAVYYDPPYTRSACYGTQRETLVVGVKNNLWQNGRACGRRYRVRCIGATYNFDRACTGRTVDVKVVDFCREPCNGDLNLSRDAFRVIANTDAGNIRVVYTPI
# modifications: left off: His6, N-terminal, kept
# notes: purified N-terminally His-tagged AtPNP-A protein
# Experiments:
# recombinant RCA (rRCA) [1] = target: T3, recombinant RCA (rRCA) (Arabidopsis thaliana, UniProt P10896); assay: biochemical; assay type: binding
# T3 construct: made in house; host or cells: E. coli BL21 (DE3) One Shot
# Description: (§1) SPR experiments were performed at 20 °C on a Biacore T100 instrument (GE Healthcare LifeSciences) with the use of Series S CM5 […] sensor chips as previously described. Data were acquired with Biacore T100 control software (version 2.0.2, GE Healthcare LifeSciences, Chicago, IL, USA). Kinetic analyses were performed at the flow of 100 μL min^−1 with pAtPNP-A (at 3.78 μM and consecutive two-fold dilutions; 11 injections included) […], whereas recombinant His-tagged RCA was used as […] immobilized on the active surface of the series S CM5 sensor chip with amine coupling kit. The surface was regenerated with glycine solution, pH 2.0 (GE Healthcare LifeSciences). The final sensorgram was generated with Scrubber (BioLogic Software Pty Ltd., Campbell, Australia).
# In both analyses the ligand was immobilized at the same levels, analytes were injected at the same concentration and conditions of runs kept constant.
# [2] = target: T1, purified recombinant N-terminally …; assay: SPR; kinetic analysis: His-tagged rRCA immobilised by amine coupling on a Series S CM5 chip, pAtPNP-A injected at 3.78 μM and consecutive two-fold dilutions (11 injections), flow 100 μL/min, regeneration with glycine pH 2.0; Biacore T100, 20 °C; conditions: both partners purified
# [3] = target: T1, purified recombinant N-terminally …; assay: as above; conditions: both partners purified; remark: listed apart in the source
# recombinant RCA (rRCA) [4] = target: T2, recombinant RCA (rRCA); assay: SPR, rAtPNP-A analyte over immobilized rRCA (CM5 chip); assay type: binding; conditions: for SPR binding to rRCA: rRCA amine-coupled on CM5 chip, rAtPNP-A as analyte, 20 °C, Biacore T100
# Description: as §1
# Figure 2 AtPNP-A directly interacts with Arabidopsis RCA in vitro. (a) Molecular docking of AtPNP-A and RCA monomer. Surface model depicts predicted docking of AtPNP-A (blue), with its active region (cyan), and RCA (tan). The structure of AtPNP-A was predicted using the iterative threading assembly refinement (I-TASSER; version 5.1) method, while the 4W5W crystal structure of A. thaliana RCA [33] was derived from RCSB PDB. Protein—protein docking was performed using ClusPro). The models were analyzed and visualized using UCSF Chimera (version 1.10.2). (b) Recombinant protein preparations used in SPR analyses. (c) Exemplar sensorgrams depicting referenced binding response of the recombinant RCA and AtPNP-A proteins.
# [5] = system: A. thaliana (Col-0) mesophyll cell protoplasts; assay: Mesophyll cell protoplast (MCP) volume assay; assay type: cell-based, Arabidopsis thaliana; conditions: MCPs in 0.4 M mannitol, 20 min; 100 nM peptide or 1 μg mL^−1 rAtPNP-A; confocal microscopy, n = 50
# From the text: Figure 1 Biologically active peptide containing the active region of AtPNP-A binds to RCA. (a) Schematics showing domain organization of AtPNP-A and the amino acid sequence of N-terminally biotinylated peptides used in the affinity-based experiments. pAtPNP-A—a peptide containing the active site of AtPNP-A; pScr—the corresponding scrambled peptide; SP—signal peptide. Cysteine residues forming a disulfide bond are underlined. (b) Assaying biological activity of the pAtPNP-A and purified recombinant AtPNP-A (rAtPNP-A). A. thaliana (Col-0) mesophyll cell protoplasts suspended in 0.4 M mannitol were treated with either water, or 100 nM pScr (negative control), or with 100 nM pAtPNP-A, or with 1 μg mL^−1 of rAtPNP-A protein for 20 min at room temperature. In each treatment, 50 randomly selected protoplasts with diameter >20 μm were included in quantitative analysis (scale bar = 20 μm). Protoplast volume was measured, and the data obtained from an exemplar experiment are plotted. […]
# Biological activity of the synthetic peptides was verified in mesophyll cell protoplast (MCP) volume assay. […] Data are expressed as mean ± SD, and statistical analyses of one-way ANOVA followed by Tukey-Kramer multiple comparison test were performed using Prism 8.0 (GraphPad Software, San Diego, CA, USA).
molecule,measurement,setting,value
CC(C)C[C@@H]1NC(=O)[C@H](CC(N)=O)NC(=O)[C@H](CC(N)=O)NC(=O)[C@H](CCCCN)NC(=O)[C@H](C(C)C)NC(=O)CNC(=O)[C@H](C(C)C)NC(=O)[C@H](C(C)C)NC(=O)[C@H](CC(C)C)NC(=O)[C@H]([C@@H](C)O)NC(=O)[C@H](CCC(=O)O)NC(=O)[C@H](CCCNC(=N)N)NC(=O)[C@H](CCC(N)=O)NC(=O)[C@H]([C@@H](C)O)NC(=O)CNC(=O)[C@H](Cc2ccc(O)cc2)NC(=O)[C@@H](NC(=O)[C@H](C)NC(=O)[C@H](CO)NC(=O)[C@H](CCCNC(=N)N)NC(=O)[C@@H](NC(=O)[C@H](Cc2ccc(O)cc2)NC(=O)[C@@H]2CCCN2C(=O)[C@@H]2CCCN2C(=O)[C@H](CC(=O)O)NC(=O)[C@H](Cc2ccc(O)cc2)NC(=O)[C@H](Cc2ccc(O)cc2)NC(=O)[C@@H](NC(=O)[C@H](C)NC(=O)CCCC[C@@H]2SC[C@@H]3NC(=O)N[C@@H]32)C(C)C)[C@@H](C)O)CSSC[C@@H](C(=O)NCC(=O)N[C@@H](CCCNC(=N)N)C(=O)N[C@@H](CCCNC(=N)N)C(=O)N[C@@H](Cc2ccc(O)cc2)C(=O)O)NC(=O)[C@H](C)NC(=O)[C@H](CCCNC(=N)N)NC(=O)CNC(=O)[C@H](CC(N)=O)NC(=O)[C@H](CCC(N)=O)NC(=O)[C@H](Cc2c[nH]c3ccccc23)NC1=O [pAtPNP-A] (Biotin-AVYYDPPYTRSACYGTQRETLVVGVKNNLWQNGRACGRRY-OH; disulfide 13-36),"dissociation constant, range in words",recombinant RCA (rRCA) [1],sub-micromolar range; also recorded: nanomolar range
same,kon,"recombinant RCA (rRCA) [1]; read-out: ka (±SE), association rate constant",16300 M⁻¹ s⁻¹
same,koff,"recombinant RCA (rRCA) [1]; read-out: kd (±SE), dissociation rate constant",0.000852 s⁻¹
B1,Kd,[2],52.3 nM
same,Kd,[3],53 nM
B2,"SPR binding to RCA (abstract, in words)","recombinant RCA (rRCA) [4]; full-length recombinant AtPNP-A, SPR",bind specifically to RCA
same,SPR binding to rRCA,recombinant RCA (rRCA) [4],bound to the rRCA protein immobilized on the active surface
same,SPR binding to rRCA,recombinant RCA (rRCA) [4]; listed as recombinant AtPNP-A,confirmed by us in vitro
same,Effect on protoplast volume,[5],protoplast volume increase
